Results from article PMC8789800.
Like-named read-outs stand apart in the source and are kept apart here.

Key:
activated RSK2 [1] = type: biochemical, Human; conditions: 10 µM GST-fusion substrate, 0.5 µM activated RSK2, no competitor
activated RSK2 [2] = assay: In vitro kinase assay of EIF4B RxxS/T phosphorylation reporters with activated RSK2, Anti-RxxpS/pT Western-blot; conditions: 10 µM GST-fusion construct, 100 nM activated RSK2; mean ± SD, N = 3
MBP-NTK_RSK2 = type: binding, Human; conditions: GST-fusion preys, 10–20 µM; Coomassie gel; N = 1; ORF45 = GST-ORF45(16-76)
ppERK2 → RSK2 = assay: In vitro kinase assay, 10 nM ppERK2 phosphorylating 2 µM RSK2, phosphorimaging; type: biochemical, Human; conditions: 50 µM ORF45 peptide; tested on ppERK2 → RSK2 and MKK1 → ERK2 → RSK2
Protocol: (§1) Phosphorimaging results are plotted on the panel at the right based on one experiment (N = 1). b In vitro kinase assay results on RSK substrate phosphorylation. […] The schematic panel on the right highlights the hierarchical phosphorylation events (one-end arrows) and the PPIs (two-end arrows) required for NTK mediated phosphorylation of RSK substrates.
Radioactivity based kinase reactions were carried out in 50 mM HEPES, pH 7.5, 100 mM NaCl, 5 mM MgCl2, 0.05% IGEPAL, 5% glycerol, 2 mM DTT using recombinant expressed and purified proteins in the presence of 250 μM ATP and ∼5 μCi of [γ-^32P]ATP. Reactions were stopped with protein loading sample buffer complemented with 20 mM EDTA, boiled, and then subjected to SDS-PAGE. Gels were dried before phosphorimaging by a Typhoon Trio+ scanner (GE Healthcare).

[3] = test system: RSK2 and ERK2-RSK2 complex; assay: Size-exclusion chromatography with fluorescently labeled ORF45(16-76); type: binding; conditions: peptide labeled with a fluorescent dye
[4] = target: double-phosphorylated ERK2 (ppERK2) (human) (UniProt P28482); assay: fluorescence polarisation
MKP3 = assay: ppERK2 dephosphorylation by MKP3, quantitative Western-blot; type: biochemical, human; conditions: 1 μM ppERK2, 1 μM MKP3; 1 μM RSK2; 1 or 5 μM ORF45(16-76)
Excerpt: as §1
Sequences of oligonucleotides used for cloning are listed in Supplementary Table 4.

activated RSK2 [5] = assay: In vitro kinase assay of RHDF1(1-289) wild type and F281A with activated RSK2, Anti-RxxpS/pT Western-blot

double-phosphorylated ERK2 (ppERK2) (human), sequence (P28482 whole entry): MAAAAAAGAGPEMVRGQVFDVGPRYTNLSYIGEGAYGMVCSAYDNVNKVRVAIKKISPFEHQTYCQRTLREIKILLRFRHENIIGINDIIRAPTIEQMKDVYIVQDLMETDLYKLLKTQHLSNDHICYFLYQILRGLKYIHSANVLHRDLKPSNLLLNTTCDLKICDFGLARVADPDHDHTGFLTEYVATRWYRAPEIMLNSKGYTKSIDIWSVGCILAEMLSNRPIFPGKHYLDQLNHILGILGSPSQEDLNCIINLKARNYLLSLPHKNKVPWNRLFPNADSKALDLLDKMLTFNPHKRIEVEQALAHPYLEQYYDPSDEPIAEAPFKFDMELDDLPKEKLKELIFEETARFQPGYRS

411-ETQERERSRTGSESSQTGTS-430 [RxxSEIF4B]
initial phosphorylation rate (activated RSK2 [1]; Sample_1): 0.3562 | initial phosphorylation rate (activated RSK2 [1]; Sample_2): 0.455 | initial phosphorylation rate (activated RSK2 [1]; Sample_3): 0.379 | initial phosphorylation rate (activated RSK2 [1]; mean N=3): 0.3967 | RxxSEIF4B phosph. rate (activated RSK2 [2]): 0.03 ± 0.01 arb. unit / min

ORF45(16-76)-F66A: VF-motif mutated version of GST-ORF45(16-76)
binding in MBP pull-down, RSK2 NTK (MBP-NTK_RSK2): did not show detectable binding

ORF45(16-76): 61 amino acid long N-terminal ORF45 peptide, expressed as GST-fusion and cleaved; GST-fusion in Fig. 7 and 8
effect on RSK2 phosphorylation in vitro (ppERK2 → RSK2): blocked RSK2 phosphorylation | binding in size-exclusion chromatography [3]: binds to RSK2 as well as to the ERK2-RSK2 complex

unlabeled ORF45(16-40) peptide
Kd [4]: 800 nM

RSK2: purified human RSK2 added to the ppERK2 dephosphorylation assay
protection of ppERK2 from dephosphorylation by MKP3 (MKP3): did not protect ppERK2 from dephosphorylation

B1: RHDF: human RHDF1 construct 1-289, wild type (protein, UniProt Q96CC6 1-289, looked up, fragment)
chain: MSEARRDSTSSLQRKKPPWLKLDIPSAVPLTAEEPSFLQPLRRQAFLRSVSMPAETAHISSPHHELRRPVLQRQTSITQTIRRGTADWFGVSKDSDSTQKWQRKSIRHCSQRYGKLKPQVLRELDLPSQDNVSLTSTETPPPLYVGPCQLGMQKIIDPLARGRAFRVADDTAEGLSAPHTPVTPGAASLCSFSSSRSGFHRLPRRRKRESVAKMSFRAAAALMKGRSVRDGTFRRAQRRSFTPASFLEEDTTDFPDELDTSFFAREGILHEELSTYPDEVFESPSEAAL
initial phosphorylation rate (activated RSK2 [1]; Sample_1): 0.1656 | initial phosphorylation rate (activated RSK2 [1]; Sample_2): 0.1405 | initial phosphorylation rate (activated RSK2 [1]; Sample_3): 0.1427 | initial phosphorylation rate (activated RSK2 [1]; mean N=3): 0.1496 | RxxS motif phosphorylation, Normalized to RHDF_Mean (activated RSK2 [5]; Sample_1): 1.075 | RxxS motif phosphorylation, Normalized to RHDF_Mean (activated RSK2 [5]; Sample_2): 0.9889 | RxxS motif phosphorylation, Normalized to RHDF_Mean (activated RSK2 [5]; Sample_3): 0.9363 | RxxS motif phosphorylation, Normalized to RHDF_Mean (activated RSK2 [5]; mean N=3): 1

B2: RHDF_F281A: RHDF1_1-289 with the VF motif mutated (F281A) (protein, UniProt Q96CC6 1-289, looked up, variant F281A)
chain: MSEARRDSTSSLQRKKPPWLKLDIPSAVPLTAEEPSFLQPLRRQAFLRSVSMPAETAHISSPHHELRRPVLQRQTSITQTIRRGTADWFGVSKDSDSTQKWQRKSIRHCSQRYGKLKPQVLRELDLPSQDNVSLTSTETPPPLYVGPCQLGMQKIIDPLARGRAFRVADDTAEGLSAPHTPVTPGAASLCSFSSSRSGFHRLPRRRKRESVAKMSFRAAAALMKGRSVRDGTFRRAQRRSFTPASFLEEDTTDFPDELDTSFFAREGILHEELSTYPDEVAESPSEAAL
RxxS motif phosphorylation, Normalized to RHDF_Mean (activated RSK2 [5]; Sample_1): 0.1221 | RxxS motif phosphorylation, Normalized to RHDF_Mean (activated RSK2 [5]; Sample_2): 0.1251 | RxxS motif phosphorylation, Normalized to RHDF_Mean (activated RSK2 [5]; Sample_3): 0.1185 | RxxS motif phosphorylation, Normalized to RHDF_Mean (activated RSK2 [5]; mean N=3): 0.1219

B3: SOS1: human SOS1 construct 1101-1170 (legend also 1101-1171) (protein, UniProt Q07889 1101-1170, looked up, fragment)
chain: VCSVFDSDHSSPFHSSNDTVFIQVTLPHGPRSASVSSISLTKGTDEVPVPPPVPPRRRPESAPAESSPSK
initial phosphorylation rate (activated RSK2 [1]; Sample_1): 1.226 | initial phosphorylation rate (activated RSK2 [1]; Sample_2): 1.21 | initial phosphorylation rate (activated RSK2 [1]; Sample_3): 0.88 | initial phosphorylation rate (activated RSK2 [1]; mean N=3): 1.105
